Data as given in US20250353930A1 (EXCELLERGY, published 2025).

T1: polyclonal human IgE (human)
T1 construct: Used at 10 nM to sensitise Hoxb8 mast cells overnight; also called surface IgE on Hoxb8 mast cells
T1 constant: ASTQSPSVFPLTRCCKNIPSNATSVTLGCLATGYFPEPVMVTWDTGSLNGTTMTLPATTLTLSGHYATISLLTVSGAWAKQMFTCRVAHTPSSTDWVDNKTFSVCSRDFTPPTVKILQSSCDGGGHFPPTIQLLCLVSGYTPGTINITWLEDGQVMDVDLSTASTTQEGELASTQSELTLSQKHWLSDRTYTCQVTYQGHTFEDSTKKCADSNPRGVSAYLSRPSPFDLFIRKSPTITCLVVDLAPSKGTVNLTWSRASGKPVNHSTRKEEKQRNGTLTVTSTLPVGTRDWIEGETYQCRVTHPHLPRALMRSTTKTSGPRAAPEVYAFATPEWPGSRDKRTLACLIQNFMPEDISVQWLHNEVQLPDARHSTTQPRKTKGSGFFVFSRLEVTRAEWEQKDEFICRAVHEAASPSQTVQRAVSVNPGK


Target: T1, polyclonal human IgE
Test: flow cytometry of surface IgE on Hoxb8 mast cells with human FcεRI, 20 h; dissociation of IgE from FcεRI

Binder | IC50 [µM]
C5 (antibody, human IgG1, kappa, Whole IgG, comparator; also called Comparator 5; Comparator_5) heavy: not shown light: DIQLTQSPSSLSASVGDRVTITCRASKSVDADGDSYMNWYQAKPGRHPKLLIYAASYLESGVPSRFSGSGSGTDFTLTISSLQPEDFATYYCQQSHEDPYTFGQGTKVEIKGRTVAAPSVFIFPPSDEQLKSGTASVVCLLNNFYPREAKVQWKVDNALQSGNSQESVTEQDSKDSTYSLSSTLTLSKADYEKHKVYACEVTHQGLSSPVTKSFNRGEC | 1.07
C6 (antibody, human IgG1, kappa, Whole IgG, comparator; also called Comparator 6; Comparator_6) heavy: not shown light: DIQLTQSPSSLSASVGDRVTITCRASKSVDADGDSYMNWYQAKPGRHPKLLIYAASYLESGVPSRFSGSGSGTDFTLTISSLQPEDFATYYCQQSHEDPYTFGQGTKVEIKRTVAAPSVFIFPPSDEQLKSGTASVVCLLNNFYPREAKVQWKVDNALQSGNSQESVTEQDSKDSTYSLSSTLTLSKADYEKHKVYACEVTHQGLSSPVTKSFNRGEC | 2.01
C4 (antibody, human IgG1, kappa, Whole IgG, comparator; also called Comparator 4; Comparator_4) heavy: not shown light: DIQLTQSPSSLSASVGDRVTITCRASKSVDADGDSYMNWYQAKPGRHPKLLIYAASYLESGVPSRFSGSGSGTDFTLTISSLQPEDFATYYCQQSHEDPYTFGQGTKVEIKGGRTVAAPSVFIFPPSDEQLKSGTASVVCLLNNFYPREAKVQWKVDNALQSGNSQESVTEQDSKDSTYSLSSTLTLSKADYEKHKVYACEVTHQGLSSPVTKSFNRGEC | 0.815
